Experiments:
rab6a_human RAB6A [1] = biological target: rab6a_human RAB6A (UniProt P20340)
rab5a_human RAB5A [2] = biological target: rab5a_human RAB5A (UniProt P20339)
rab1a_human RAB1A [3] = biological target: rab1a_human RAB1A (UniProt P62820)
clh1_human CLTC [4] = biological target: clh1_human CLTC (UniProt Q00610)
rab6a_human RAB6A [5] = biological target: rab6a_human RAB6A (UniProt P20340); remark: listed apart in the source
rab1a_human RAB1A [6] = biological target: rab1a_human RAB1A (UniProt P62820); remark: listed apart in the source
rab5a_human RAB5A [7] = biological target: rab5a_human RAB5A (UniProt P20339); remark: listed apart in the source
rab6a_human RAB6A [8] = biological target: rab6a_human RAB6A (UniProt P20340); remark: listed apart in the source
clh1_human CLTC [9] = biological target: clh1_human CLTC (UniProt Q00610); remark: listed apart in the source
rab6a_human RAB6A [10] = biological target: rab6a_human RAB6A (UniProt P20340); remark: listed apart in the source
clh1_human CLTC [11] = biological target: clh1_human CLTC (UniProt Q00610); remark: listed apart in the source
rab6a_human RAB6A [12] = biological target: rab6a_human RAB6A (UniProt P20340); remark: listed apart in the source
rab5a_human RAB5A [13] = biological target: rab5a_human RAB5A (UniProt P20339); remark: listed apart in the source
rab1a_human RAB1A [14] = biological target: rab1a_human RAB1A (UniProt P62820); remark: listed apart in the source
rab6a_human RAB6A [15] = biological target: rab6a_human RAB6A (UniProt P20340); remark: listed apart in the source
rab5a_human RAB5A [16] = biological target: rab5a_human RAB5A (UniProt P20339); remark: listed apart in the source
rab1a_human RAB1A [17] = biological target: rab1a_human RAB1A (UniProt P62820); remark: listed apart in the source

Inositol polyphosphate 5-phosphatase OCRL (Homo sapiens), Q01968 S568G, sequence (Q01968 whole entry S568G): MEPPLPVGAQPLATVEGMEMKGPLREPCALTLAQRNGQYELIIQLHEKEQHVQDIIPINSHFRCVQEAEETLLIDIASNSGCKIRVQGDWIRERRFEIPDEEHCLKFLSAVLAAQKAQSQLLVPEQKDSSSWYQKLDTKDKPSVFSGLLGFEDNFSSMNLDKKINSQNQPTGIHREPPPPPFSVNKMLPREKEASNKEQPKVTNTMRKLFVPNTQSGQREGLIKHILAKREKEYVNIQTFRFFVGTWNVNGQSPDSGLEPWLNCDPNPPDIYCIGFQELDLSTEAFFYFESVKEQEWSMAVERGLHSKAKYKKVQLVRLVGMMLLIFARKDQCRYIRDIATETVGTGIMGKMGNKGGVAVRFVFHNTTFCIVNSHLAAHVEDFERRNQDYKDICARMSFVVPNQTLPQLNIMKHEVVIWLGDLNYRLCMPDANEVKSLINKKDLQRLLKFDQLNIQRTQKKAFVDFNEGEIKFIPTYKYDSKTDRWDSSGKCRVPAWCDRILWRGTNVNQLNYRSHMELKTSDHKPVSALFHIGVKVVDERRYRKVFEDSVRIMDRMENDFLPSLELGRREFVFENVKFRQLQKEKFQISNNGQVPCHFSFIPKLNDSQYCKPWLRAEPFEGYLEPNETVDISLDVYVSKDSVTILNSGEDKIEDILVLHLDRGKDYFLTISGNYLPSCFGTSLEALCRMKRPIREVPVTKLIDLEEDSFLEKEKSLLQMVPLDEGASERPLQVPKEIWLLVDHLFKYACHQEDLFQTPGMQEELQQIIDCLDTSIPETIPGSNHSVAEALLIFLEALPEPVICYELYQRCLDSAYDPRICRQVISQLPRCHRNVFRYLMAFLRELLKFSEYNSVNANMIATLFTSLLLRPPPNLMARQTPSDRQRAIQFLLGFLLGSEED
rab5a_human RAB5A, sequence (P20339 whole entry): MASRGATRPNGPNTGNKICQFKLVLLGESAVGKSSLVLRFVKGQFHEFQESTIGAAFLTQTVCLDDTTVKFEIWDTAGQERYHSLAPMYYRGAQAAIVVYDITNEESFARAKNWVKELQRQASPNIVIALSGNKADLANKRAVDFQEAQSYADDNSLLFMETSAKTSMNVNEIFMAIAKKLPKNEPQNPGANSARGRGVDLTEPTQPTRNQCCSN
rab6a_human RAB6A, sequence (P20340 whole entry, looked up): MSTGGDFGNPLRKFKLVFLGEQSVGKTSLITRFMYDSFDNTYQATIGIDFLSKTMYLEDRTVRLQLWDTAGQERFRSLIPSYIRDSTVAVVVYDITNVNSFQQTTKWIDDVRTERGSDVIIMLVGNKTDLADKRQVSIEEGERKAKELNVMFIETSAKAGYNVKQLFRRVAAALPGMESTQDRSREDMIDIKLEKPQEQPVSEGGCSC
Inositol polyphosphate 5-phosphatase OCRL (Homo sapiens), Q01968 G664D, sequence (Q01968 whole entry G664D): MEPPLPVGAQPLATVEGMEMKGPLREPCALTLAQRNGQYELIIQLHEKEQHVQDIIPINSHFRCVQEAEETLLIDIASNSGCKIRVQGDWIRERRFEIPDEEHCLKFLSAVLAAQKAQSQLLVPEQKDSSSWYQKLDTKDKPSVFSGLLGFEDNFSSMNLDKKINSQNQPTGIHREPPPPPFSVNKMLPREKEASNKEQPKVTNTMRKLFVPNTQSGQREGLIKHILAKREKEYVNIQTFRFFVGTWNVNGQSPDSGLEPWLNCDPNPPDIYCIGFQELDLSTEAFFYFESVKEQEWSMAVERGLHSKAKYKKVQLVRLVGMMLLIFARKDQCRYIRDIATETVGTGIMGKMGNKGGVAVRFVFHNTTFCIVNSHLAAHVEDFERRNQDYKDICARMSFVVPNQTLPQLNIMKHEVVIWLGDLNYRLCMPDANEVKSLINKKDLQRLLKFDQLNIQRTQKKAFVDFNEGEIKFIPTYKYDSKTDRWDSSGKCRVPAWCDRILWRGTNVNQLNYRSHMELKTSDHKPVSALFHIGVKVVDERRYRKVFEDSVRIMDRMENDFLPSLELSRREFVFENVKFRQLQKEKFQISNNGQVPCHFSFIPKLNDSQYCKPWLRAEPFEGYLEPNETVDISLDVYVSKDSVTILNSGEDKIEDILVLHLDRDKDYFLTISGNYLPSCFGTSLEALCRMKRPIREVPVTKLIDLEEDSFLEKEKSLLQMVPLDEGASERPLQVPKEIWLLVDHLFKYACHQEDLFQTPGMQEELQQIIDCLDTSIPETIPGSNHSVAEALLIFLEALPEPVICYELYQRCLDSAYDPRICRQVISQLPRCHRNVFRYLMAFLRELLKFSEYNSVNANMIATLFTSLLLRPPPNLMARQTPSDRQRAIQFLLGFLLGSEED
clh1_human CLTC, sequence (Q00610 whole entry): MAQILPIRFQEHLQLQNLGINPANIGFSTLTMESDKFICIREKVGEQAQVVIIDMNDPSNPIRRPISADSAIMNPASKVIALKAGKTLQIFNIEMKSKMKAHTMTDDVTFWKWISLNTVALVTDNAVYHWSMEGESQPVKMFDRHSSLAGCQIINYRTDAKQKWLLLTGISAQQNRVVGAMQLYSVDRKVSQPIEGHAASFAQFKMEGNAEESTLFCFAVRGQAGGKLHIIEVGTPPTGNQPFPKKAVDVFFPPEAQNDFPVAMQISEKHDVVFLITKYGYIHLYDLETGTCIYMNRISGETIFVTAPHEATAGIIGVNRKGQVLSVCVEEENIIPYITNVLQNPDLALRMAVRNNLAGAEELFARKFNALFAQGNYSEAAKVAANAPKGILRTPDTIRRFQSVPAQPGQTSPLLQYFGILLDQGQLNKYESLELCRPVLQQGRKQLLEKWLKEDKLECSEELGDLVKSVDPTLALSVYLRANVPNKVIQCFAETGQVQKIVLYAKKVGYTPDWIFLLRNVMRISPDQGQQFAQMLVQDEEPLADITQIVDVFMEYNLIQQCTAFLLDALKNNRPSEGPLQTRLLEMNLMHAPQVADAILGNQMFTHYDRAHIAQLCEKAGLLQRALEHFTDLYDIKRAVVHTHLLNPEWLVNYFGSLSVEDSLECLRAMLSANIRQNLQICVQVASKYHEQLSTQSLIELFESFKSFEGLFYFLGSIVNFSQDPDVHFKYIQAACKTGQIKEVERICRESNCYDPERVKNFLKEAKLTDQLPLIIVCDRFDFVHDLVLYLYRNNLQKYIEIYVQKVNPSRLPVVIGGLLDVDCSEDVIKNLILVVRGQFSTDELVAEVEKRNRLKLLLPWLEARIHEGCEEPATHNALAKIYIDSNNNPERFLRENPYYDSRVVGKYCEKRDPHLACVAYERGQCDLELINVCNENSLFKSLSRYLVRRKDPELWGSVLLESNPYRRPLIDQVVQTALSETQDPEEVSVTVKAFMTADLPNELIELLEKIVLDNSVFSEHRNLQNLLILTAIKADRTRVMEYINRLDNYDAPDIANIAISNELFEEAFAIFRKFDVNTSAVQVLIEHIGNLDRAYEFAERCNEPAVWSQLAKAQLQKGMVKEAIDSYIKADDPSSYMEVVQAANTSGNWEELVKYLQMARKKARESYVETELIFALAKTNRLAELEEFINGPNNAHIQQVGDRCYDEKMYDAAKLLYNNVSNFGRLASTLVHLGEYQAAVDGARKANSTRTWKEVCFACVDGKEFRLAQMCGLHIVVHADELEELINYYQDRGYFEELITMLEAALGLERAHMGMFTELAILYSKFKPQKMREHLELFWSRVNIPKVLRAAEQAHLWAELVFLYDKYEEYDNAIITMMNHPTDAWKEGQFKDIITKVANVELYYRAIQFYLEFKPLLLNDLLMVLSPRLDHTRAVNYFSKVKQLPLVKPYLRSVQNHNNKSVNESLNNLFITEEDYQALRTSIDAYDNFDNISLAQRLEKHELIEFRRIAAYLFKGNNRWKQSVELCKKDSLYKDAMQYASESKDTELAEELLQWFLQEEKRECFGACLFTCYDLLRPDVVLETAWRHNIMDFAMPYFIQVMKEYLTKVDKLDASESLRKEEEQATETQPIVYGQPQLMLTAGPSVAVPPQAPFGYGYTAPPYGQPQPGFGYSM
Inositol polyphosphate 5-phosphatase OCRL (Homo sapiens), Q01968 D555E, sequence (Q01968 whole entry D555E): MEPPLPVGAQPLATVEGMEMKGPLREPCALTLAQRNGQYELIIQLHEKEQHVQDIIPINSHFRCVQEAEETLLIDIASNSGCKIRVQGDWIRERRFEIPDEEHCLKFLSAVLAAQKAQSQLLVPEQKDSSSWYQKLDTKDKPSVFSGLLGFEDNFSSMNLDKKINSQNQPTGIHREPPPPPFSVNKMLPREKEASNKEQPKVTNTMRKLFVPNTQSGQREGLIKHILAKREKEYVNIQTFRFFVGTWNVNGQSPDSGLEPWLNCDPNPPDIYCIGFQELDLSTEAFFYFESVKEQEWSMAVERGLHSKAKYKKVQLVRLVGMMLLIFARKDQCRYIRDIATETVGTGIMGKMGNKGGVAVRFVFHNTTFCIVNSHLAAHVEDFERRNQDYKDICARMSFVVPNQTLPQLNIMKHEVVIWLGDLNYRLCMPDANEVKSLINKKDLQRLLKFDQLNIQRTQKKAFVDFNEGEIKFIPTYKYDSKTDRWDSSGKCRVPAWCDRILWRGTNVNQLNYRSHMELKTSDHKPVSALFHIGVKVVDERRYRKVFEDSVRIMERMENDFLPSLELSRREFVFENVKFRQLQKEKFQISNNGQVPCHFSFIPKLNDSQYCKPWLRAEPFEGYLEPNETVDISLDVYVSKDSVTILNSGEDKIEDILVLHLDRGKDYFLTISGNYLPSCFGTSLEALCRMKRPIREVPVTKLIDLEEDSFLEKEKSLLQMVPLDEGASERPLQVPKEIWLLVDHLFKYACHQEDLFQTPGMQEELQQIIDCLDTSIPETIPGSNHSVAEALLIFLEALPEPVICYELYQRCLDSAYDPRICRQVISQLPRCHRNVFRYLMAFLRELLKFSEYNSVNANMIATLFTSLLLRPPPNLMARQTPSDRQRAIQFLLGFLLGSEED
rab1a_human RAB1A, sequence (P62820 whole entry): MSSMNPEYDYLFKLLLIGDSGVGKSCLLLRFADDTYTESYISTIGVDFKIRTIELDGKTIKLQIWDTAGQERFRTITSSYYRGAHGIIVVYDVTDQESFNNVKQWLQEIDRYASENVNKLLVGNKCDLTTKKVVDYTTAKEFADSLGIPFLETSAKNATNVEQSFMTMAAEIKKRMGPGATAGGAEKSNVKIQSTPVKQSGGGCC

Inositol polyphosphate 5-phosphatase OCRL (Homo sapiens), Q01968 D555E
effect of a mutation on the interaction (rab6a_human RAB6A [1]): decreasing interaction
effect of a mutation on the interaction (rab5a_human RAB5A [2]): decreasing interaction
effect of a mutation on the interaction (rab1a_human RAB1A [3]): disrupting interaction
effect of a mutation on the interaction (clh1_human CLTC [4]): decreasing interaction

Inositol polyphosphate 5-phosphatase OCRL (Homo sapiens), Q01968 G664D
effect of a mutation on the interaction (rab6a_human RAB6A [5]): disrupting interaction
effect of a mutation on the interaction (rab1a_human RAB1A [6]): disrupting interaction
effect of a mutation on the interaction (rab5a_human RAB5A [7]): decreasing interaction

Inositol polyphosphate 5-phosphatase OCRL (Homo sapiens), Q01968 N606K
effect of a mutation on the interaction (rab6a_human RAB6A [8]): increasing interaction
effect of a mutation on the interaction (clh1_human CLTC [9]): increasing interaction

Inositol polyphosphate 5-phosphatase OCRL (Homo sapiens), Q01968 P526H
effect of a mutation on the interaction (rab6a_human RAB6A [10]): increasing interaction
effect of a mutation on the interaction (clh1_human CLTC [11]): increasing interaction

Inositol polyphosphate 5-phosphatase OCRL (Homo sapiens), Q01968 S564P
effect of a mutation on the interaction (rab6a_human RAB6A [12]): disrupting interaction
effect of a mutation on the interaction (rab5a_human RAB5A [13]): decreasing interaction
effect of a mutation on the interaction (rab1a_human RAB1A [14]): disrupting interaction

Inositol polyphosphate 5-phosphatase OCRL (Homo sapiens), Q01968 S568G
effect of a mutation on the interaction (rab6a_human RAB6A [15]): decreasing interaction
effect of a mutation on the interaction (rab5a_human RAB5A [16]): increasing interaction
effect of a mutation on the interaction (rab1a_human RAB1A [17]): increasing interaction

— IntAct's records for PubMed 16902405
